Measurements reported in EP4624492A1 (Shanghai Hongcheng Biopharmaceutical Co., Ltd., dated 2025).
Changes are numbered by the printed parent chain.

B1: 563E10E12_hzH5L1_hIgG1 (antibody)
heavy: not shown
light: DVVMTQSPLSLPVTPGEPASISCRSSKSLLHSNGITYLFWYLQKPGQSPQLLIYQMSNLASGVPDRFSGSGSGTDFTLKISRVEAEDVGVYYCAQSLELPLTFGGGTKVEIKRTVAAPSVFIFPPSDEQLKSGTASVVCLLNNFYPREAKVQWKVDNALQSGNSQESVTEQDSKDSTYSLSSTLTLSKADYEKHKVYACEVTHQGLSSPVTKSFNRGEC
notes: Humanized, hIgG1/K
B2: 563E10E12_hzH4L0_hIgG1 (antibody)
heavy: not shown
light: B1 light with V2I
notes: Humanized, hIgG1/K
B3: 563E10E12_hzH5L0_hIgG1 (antibody)
heavy: not shown
light: B1 light with V2I
notes: Humanized, hIgG1/K
B4: 563E10E12_hzH3L1_hIgG1 (antibody)
heavy: not shown
light: B1 light
notes: Humanized, hIgG1/K
B5: 563E10E12_hzH4L1_hIgG1 (antibody)
heavy: not shown
light: B1 light
notes: Humanized, hIgG1/K
B6: 559E1B10_hzH2L1_hIgG1 (antibody)
heavy: not shown
light: EIVLTQSPATLSLSPGERATLSCRASQSISDYLHWYQQKPGQAPRLLLKYVSQSISGIPARFSGSGSGTDFTLTISSLEPEDFAVYYCQNGHSFPLTFGGGTKVEIKRTVAAPSVFIFPPSDEQLKSGTASVVCLLNNFYPREAKVQWKVDNALQSGNSQESVTEQDSKDSTYSLSSTLTLSKADYEKHKVYACEVTHQGLSSPVTKSFNRGEC
notes: Humanized, hIgG1/K
B7: 559E1B10_hzH2L2_hIgG1 (antibody)
heavy: not shown
light: B6 light with E1D, L4M
notes: Humanized, hIgG1/K
B8: 559E1B10_hzH3L1_hIgG1 (antibody)
heavy: not shown
light: B6 light
notes: Humanized, hIgG1/K
B9: 559E1B10_hzH3L2_hIgG1 (antibody)
heavy: not shown
light: B6 light with E1D, L4M
notes: Humanized, hIgG1/K
B10: 559E1B10_hzH1L2_hIgG1 (antibody)
heavy: not shown
light: B6 light with E1D, L4M
notes: Humanized, hIgG1/K
B11: 559E1B10_hzH0L2_hIgG1 (antibody)
heavy: not shown
light: B6 light with E1D, L4M
notes: Humanized, hIgG1/K
B12: 559E1B10_hzH0L1_hIgG1 (antibody)
heavy: not shown
light: B6 light
notes: Humanized, hIgG1/K
B13: 559E1B10_hIgG1 (antibody)
heavy: not shown
light: DIVMTQSPATLSVTPGDRVSLSCRASQSISDYLHWYQQKSHESPRLLLKYVSQSISGIPSRFSGSGSGSDFTLTINSVEPEDVGVYYCQNGHSFPLTFGAGTKLELKRTVAAPSVFIFPPSDEQLKSGTASVVCLLNNFYPREAKVQWKVDNALQSGNSQESVTEQDSKDSTYSLSSTLTLSKADYEKHKVYACEVTHQGLSSPVTKSFNRGEC
notes: also called hIgG1-subclass chimeric antibody 559E1B10
B14: 559E1B10_hzH3L0_hIgG1 (antibody, V domains shown)
VH: KVQLVQSGAEVKKPGASVKVSCKASGYTFTDYYVNWVRQAPGQGLEWIGVINPHNGDTRYNQKFKGKATLTVDKSTSTAYMELSSLRSEDTAVYYCASWLRRGYYFDSWGQGTTVTVSS
VL: EIVLTQSPATLSLSPGERATLSCRASQSISDYLHWYQQKPGQAPRLLIYYVSQSISGIPARFSGSGSGTDFTLTISSLEPEDFAVYYCQNGHSFPLTFGGGTKVEIKR
notes: Humanized, hIgG1/K
B15: 563E10E12_hzH1L1_DE (antibody, human IgG1, kappa)
heavy: not shown
light: B1 light
B16: 563E10E12_hzH1L1_VLPLL (antibody, human IgG1, kappa)
heavy: EVQLVESGGGLVQPGGSLKLSCAASGFNFNAYAMNWVRQASGKGLEWVGRIRSKSNNFATYYADSVTDRFTISRDDSKNTAYLQMNSLKTEDTAVYYCVRHGRRDLLYSMDFWGQGTTVTVSSASTKGPSVFPLAPSSKSTSGGTAALGCLVKDYFPEPVTVSWNSGALTSGVHTFPAVLQSSGLYSLSSVVTVPSSSLGTQTYICNVNHKPSNTKVDKKVEPKSCDKTHTCPPCPAPELVGGPSVFLLPPKPKDTLMISRTPEVTCVVVDVSHEDPEVKFNWYVDGVEVHNAKTKPPEEQYNSTLRVVSVLTVLHQDWLNGKEYKCKVSNKALPAPIEKTISKAKGQPREPQVYTLPPSRDELTKNQVSLTCLVKGFYPSDIAVEWESNGQPENNYKTTPLVLDSDGSFFLYSKLTVDKSRWQQGNVFSCSVMHEALHNHYTQKSLSLSPGK
light: B1 light
B17: 559E1B10_hzH1L1_VLPLL (antibody, human IgG1, kappa)
heavy: QVQLVQSGAEVKKPGASVKVSCKASGYTFTDYYVNWVRQAPGQGLEWMGVINPHNGDTRYNQKFKGRVTMTVDKSTSTVYMELSSLRSEDTAVYYCASWLRRGYYFDSWGQGTTVTVSSASTKGPSVFPLAPSSKSTSGGTAALGCLVKDYFPEPVTVSWNSGALTSGVHTFPAVLQSSGLYSLSSVVTVPSSSLGTQTYICNVNHKPSNTKVDKKVEPKSCDKTHTCPPCPAPELVGGPSVFLLPPKPKDTLMISRTPEVTCVVVDVSHEDPEVKFNWYVDGVEVHNAKTKPPEEQYNSTLRVVSVLTVLHQDWLNGKEYKCKVSNKALPAPIEKTISKAKGQPREPQVYTLPPSRDELTKNQVSLTCLVKGFYPSDIAVEWESNGQPENNYKTTPLVLDSDGSFFLYSKLTVDKSRWQQGNVFSCSVMHEALHNHYTQKSLSLSPGK
light: B6 light
B18: 559E1B10_hzH1L1_DE (antibody, human IgG1, kappa)
heavy: not shown
light: B6 light
B19: 569D11B5_hIgG1 (antibody)
heavy: not shown
light: B1 light with V2I, S7A, P8A, L9F, L11N, P15L, E17T, P18S, K79R, V109L
notes: also called hIgG1-subclass chimeric antibody 569D11B5
B20: 589D7C7_hIgG1 (antibody)
heavy: not shown
light: DIVMTQAAFSNPVTLGTSASISCRSSKSLLHSNGITYLFWYLQKPGQSPQLLIYQMSNLASGVPDRFSGSGSGTDFTLRISRVEAEDVAVYYCAQSLELPLTFGGGTKLEIKRTVAAPSVFIFPPSDEQLKSGTASVVCLLNNFYPREAKVQWKVDNALQSGNSQESVTEQDSKDSTYSLSSTLTLSKADYEKHKVYACEVTHQGLSSPVTKSFNRGEC
notes: also called hIgG1-subclass chimeric antibody 589D7C7

What follows are binders tested against T1, human CCR8 (human, UniProt P51685 1-355) (assay: cell-based or functional assay).
For B1, the “IC50 of blockade of CCL1-induced β-arrestin recruitment” value was 1380 ng/mL.
For B2, the “IC50 of blockade of CCL1-induced β-arrestin recruitment” value was 1490 ng/mL.
B3 was tested, and the “IC50 of blockade of CCL1-induced β-arrestin recruitment” value was 1700 ng/mL.
In the case of B4, the “IC50 of blockade of CCL1-induced β-arrestin recruitment” value is reported as 1530 ng/mL.
With B5 the “IC50 of blockade of CCL1-induced β-arrestin recruitment” value was 2100 ng/mL.
For B6, the “IC50 of blockade of CCL1-induced β-arrestin recruitment” value was 46400 ng/mL.
In the case of B7, the “IC50 of blockade of CCL1-induced β-arrestin recruitment” value is reported as 6680 ng/mL.
With B8 the “IC50 of blockade of CCL1-induced β-arrestin recruitment” value was 14800 ng/mL.
In the case of B9, the “IC50 of blockade of CCL1-induced β-arrestin recruitment” value is reported as 71200 ng/mL.
In the case of B10, the “IC50 of blockade of CCL1-induced β-arrestin recruitment” value is reported as 7340 ng/mL.
B11 was tested, and the “IC50 of blockade of CCL1-induced β-arrestin recruitment” value was 11200 ng/mL.
With B12 the “IC50 of blockade of CCL1-induced β-arrestin recruitment” value was 118000 ng/mL.
For B13, the “IC50 of blockade of CCL1-induced β-arrestin recruitment” value was 10200 ng/mL.

Target: T1, human CCR8
Test: cell-based or functional assay
Remark: another data set of the same source
B6 was tested, and the “EC50 of activation of Jurkat-human FcγRIIIa(158V)-NFAT with 293F-hCCR8 target cells” value (from here on “EC50 … with 293F-hCCR8 target cells”) was 29.2 ng/mL.
In the case of B7, the “EC50 … with 293F-hCCR8 target cells” value is reported as 33 ng/mL.
With B8 the “EC50 … with 293F-hCCR8 target cells” value was 28 ng/mL.
With B9 the “EC50 … with 293F-hCCR8 target cells” value was 34.4 ng/mL.
For B10, the “EC50 … with 293F-hCCR8 target cells” value was 32.5 ng/mL.
In the case of B11, the “EC50 … with 293F-hCCR8 target cells” value is reported as 28.6 ng/mL.
B14 was tested, and the “EC50 … with 293F-hCCR8 target cells” value was 98.5 ng/mL.
With B12 the “EC50 … with 293F-hCCR8 target cells” value was 30.5 ng/mL.
B13 was tested, and the “EC50 … with 293F-hCCR8 target cells” value was 40.1 ng/mL.

These binders were tested against T1, human CCR8 (assay: flow cytometry, competition with 10 nM AF647-human CCL1 on 293F-hCCR8 cells).
B1 showed an IC50 of 0.0878 µg/mL.
Binder B2 has an IC50 of 0.0544 µg/mL.
B3 gave an IC50 of 0.0851 µg/mL.
B4 was tested, and the IC50 was 0.0732 µg/mL.
Binder B5 has an IC50 of 0.0458 µg/mL.
B6 was tested, and the IC50 was 0.102 µg/mL.
Binder B7 has an IC50 of 0.14 µg/mL.
For B8, the IC50 was 0.088 µg/mL.
Work on B9 yielded an IC50 of 0.121 µg/mL.
With B10 the IC50 was 0.0769 µg/mL.
B11 was tested, and the IC50 was 0.0413 µg/mL.
With B14 the IC50 was 0.443 µg/mL.
For B12, the IC50 was 0.0438 µg/mL.
B13 showed an IC50 of 0.125 µg/mL.

Each binder was assayed against T1, human CCR8 (assay: flow cytometry on 293F-hCCR8 cells).
Binder B1 has an EC50 of 0.129 µg/mL.
Binder B2 has an EC50 of 0.102 µg/mL.
Work on B3 yielded an EC50 of 0.13 µg/mL.
B4 was tested, and the EC50 was 0.114 µg/mL.
B5 showed an EC50 of 0.116 µg/mL.
Work on B6 yielded an EC50 of 0.141 µg/mL.
B7 showed an EC50 of 0.204 µg/mL.
Binder B8 has an EC50 of 0.176 µg/mL.
With B9 the EC50 was 0.133 µg/mL.
Work on B10 yielded an EC50 of 0.15 µg/mL.
B11 gave an EC50 of 0.0979 µg/mL.
In the case of B14, the EC50 is reported as 0.13 µg/mL.
With B12 the EC50 was 0.135 µg/mL.
B13 was tested, and the EC50 was 0.101 µg/mL.

Target: T1, human CCR8
Test: cell-based or functional assay
Remark: another data set of the same source
With B15 the “EC50 … with 293F-hCCR8 target cells” value was 0.6 ng/mL.
B16 was tested, and the “EC50 … with 293F-hCCR8 target cells” value was 1.3 ng/mL.
With B17 the “EC50 … with 293F-hCCR8 target cells” value was 1.4 ng/mL.
In the case of B18, the “EC50 … with 293F-hCCR8 target cells” value is reported as 0.6 ng/mL.

Target: T1, human CCR8
Test: flow cytometry, competition with 10 nM AF647-human CCL1 on 293F-hCCR8 cells
Remark: another data set of the same source
For B19, the IC50 was 0.0748 µg/mL.
Work on B20 yielded an IC50 of 0.0526 µg/mL.
With B13 the IC50 was 0.0549 µg/mL.

Target: T1, human CCR8
Test: flow cytometry on 293F-hCCR8 cells
Remark: another data set of the same source
Binder B19 has an EC50 of 0.113 µg/mL.
For B20, the EC50 was 0.164 µg/mL.
B13 showed an EC50 of 0.0617 µg/mL.

Target: T1, human CCR8
Test: cell-based or functional assay
Remark: another data set of the same source
With B1 the “EC50 … with 293F-hCCR8 target cells” value was 26.4 ng/mL.
For B2, the “EC50 … with 293F-hCCR8 target cells” value was 38.8 ng/mL.
B3 was tested, and the “EC50 … with 293F-hCCR8 target cells” value was 35.5 ng/mL.
B4 was tested, and the “EC50 … with 293F-hCCR8 target cells” value was 26.1 ng/mL.
For B5, the “EC50 … with 293F-hCCR8 target cells” value was 25.9 ng/mL.
